From publication PMC10014863, “Structural analysis of the housecleaning nucleoside triphosphate pyrophosphohydrolase MazG from Mycobacterium tuberculosis” (Frontiers in Microbiology, 2023)

Biological target: the molecule itself
Experiment: SEC

B1: Mycobacterium tuberculosis MazG (Mtb-MazG), full-length wild type (enzyme)
chain: MIVVLVDPRRPTLVPVEAIEFLRGEVQYTEEMPVAVPWSLPAARSAHAGNDAPVLLSSDPNHPAVITRLAAGARLISAPDSQRGERLVDAVAMMDKLRTAGPWESEQTHDSLRRYLLEETYELLDAVRSGSVDQLREELGDLLLQVLFHARIAEDASQSPFTIDDVADTLMRKLGNRAPGVLAGESISLEDQLAQWEAAKASEKARKSVADDVHTGQPALALAQKVIQRAQKAGLPAHLIPDEITSVSVSADVDAENTLRTAVLDFIDRLRCAERAIAVARRGSNVAEQLDVTPLGVITEQEWLAHWPTAVNDSRGGSKKRKGMR
notes: also called WT MazG; full-length MazG
  stoichiometry N: 2
